1 substance from paper PMC8311496 can be followed below.

In this series the test system is PE6 (Mycobacterium tuberculosis). The note with it: 10 mM Tris-HCl pH 7.4, 100 mM NaCl, 298 K (fluorescence titration).

pKd: −log10 of the molar value.

With dsDNA (unspecified), the pKd (as a rule, the negative decadic logarithm of the Kd, by convention in mol/L) is 5.85.
